The record followed here is US20220306762A1.

Assay [1] has as its target Human CD38 on transiently transfected Expi293 cells (Origene SC321273) (human) (UniProt P28907). Description: flow cytometry, 10 ug/ml scFv-Fc, transfected Expi293 cells.
In assay [2] the target is His-tagged human CD38 (ACRO Biosystems CD8-H5224) (human) (UniProt P28907). Description: ELISA, 1 ug/ml scFv-Fc, coated His-tagged CD38.
Assay [3] deals with His-tagged cynomolgus monkey CD38 (ACRO Biosystems, CD8-05223 [sic]) (cynomolgus monkey) (UniProt Q5VAN0). Description: ELISA, 1 ug/ml scFv-Fc, coated His-tagged CD38.
For assay [4], the target named is His-tagged mouse CD38 (ACRO Biosystems CD8-M5223) (mouse) (UniProt P56528). Description: ELISA, 1 ug/ml scFv-Fc, coated His-tagged CD38.
The target in assay [5] is Murine CD38 on transiently transfected Expi293 cells (Origene MC208001) (murine) (UniProt P56528). Description: flow cytometry, 10 ug/ml scFv-Fc, transfected Expi293 cells.

Changes are numbered by the printed parent chain.

B1: 40769p2.1.C1 scFv-Fc (scFv, part only; not given: Linker, domain order, Fc, V domains shown, not shown: another chain or arm of the molecule; a dimerising Fc or GST; small tags and cut ends)
VH: EVQLLESGGGLVQPGGSLRLSCAASGFSFSDYWMNWVRQAPGKGLEWVSTISSGGNMIYYADSVKGRFTISRDNSKNTLYLRMNSLRAEDTAVYYCAKDNWNDYYGMDVWGQGTTVTVSS
VL: QSVLTQPPSASGTPGQRVTISCSGSSSNIRDNYVYWYQQVPGTAPKLLIYKDDQRPSGVPDRFSGSKSGSSASLAISGLQSEDEADYYCATWDGSLNARVFGGGTKLTVL
For the molecule B1, in assay [1], the FACS percent gated was 74.9%. Also, the ELISA signal in assay [2] is 2.42; in assay [3], 2.35; in assay [4] it was 0.048.

B2: 40769p2.2.H4 scFv-Fc (scFv, part only; not given: Linker, domain order, Fc, V domains shown, not shown: another chain or arm of the molecule; a dimerising Fc or GST; small tags and cut ends)
VH: B1 VH with S28D, D31S, N56S, M57I, R67Q, R82Q
VL: B1 VL with L4P, S70T
For B2, the FACS percent gated is 92.5% in assay [1] and 1.43% in assay [5]. For the same molecule, the figures for the ELISA signal in assay [2], in assay [3] and in assay [4] were 1.67, 1.47 and 0.045, respectively.

B3: 40769p2.1.E1 scFv-Fc (scFv, part only; not given: Linker, domain order, Fc, V domains shown, not shown: another chain or arm of the molecule; a dimerising Fc or GST; small tags and cut ends)
VH: EVQLLESGGGLIQPGGSLRLSCTASGFDFSSYGMHWVRQAPGKGLEWVAIISDSGGTTYYGDSVKGRFTISRDNSKSTLYLQMNSLRAEDTALYYCASYIMDVWGQGTTVTVSS
VL: QSVLTQPPSASGTPEQRVTISCSGSNSNVGDNAVYWYQQLPGTAPKLLFYGTNRRPSGVPDRFSGSKSGTSASLAISGLQSEDEADYYCAAWDDSLNAWVFGGGTKLTVL
With B3, the FACS percent gated came out at 75.4% in assay [1] and 23.7% in assay [5]. Moreover, the values for the ELISA signal in assay [2], in assay [3] and in assay [4] were 2.04, 2.04 and 1.53, respectively.

B4: 40769p2.1.G4 scFv-Fc (scFv, part only; not given: Linker, domain order, Fc, V domains shown, not shown: another chain or arm of the molecule; a dimerising Fc or GST; small tags and cut ends)
VH: EVQLLESGGGLVQPGGSLRLSCAASGFTFTSHDMNWVRQAPGKGLEWVSTITTGGNTYYADSVKGRFTISRDNSKNTLYLQMTSLRAEDTAVYYCTKHYSMDVWGQGTTVTVSS
VL: B3 VL with E15G, N26T, G30V, D31F, T52K, N53S, R54Q, S95T, A98G
As for B4, the FACS percent gated in assay [1] is 77%; in assay [5], 42.4%. Moreover, the ELISA signal was 1.81 in assay [2], 2.31 in assay [3] and 2.1 in assay [4].

B5: 40769p2.2.D3 scFv-Fc (scFv, V domains shown)
VH: B3 VH with A49G, G61A, S77N, T108I
VL: B3 VL with E15G, D31V, A33S, F49I, T52S, N53G, G65V, D94G, S95G
B5 displayed an ELISA signal in assay [4] of 0.044.

B6: 40769p2.1.H12 scFv-Fc (scFv, part only; not given: Linker, domain order, Fc, V domains shown, not shown: another chain or arm of the molecule; a dimerising Fc or GST; small tags and cut ends)
VH: B3 VH with A49G, G61A, S77N, T108I
VL: B3 VL with E15G, D31V, A33S, F49I, T52S, N53G, G65V, S95G
Consider B6, for which the FACS percent gated in assay [1] turned out to be 77.1%; in assay [5], 22.9%. The ELISA signal in assay [2] came to 2.01; in assay [3], 2.29; in assay [4] it was 1.37.

B7: 40769p2.1.E8 scFv-Fc (scFv, part only; not given: Linker, domain order, Fc, V domains shown, not shown: another chain or arm of the molecule; a dimerising Fc or GST; small tags and cut ends)
VH: EVQLLESGGGLVQPGGSLRLSCTGFGFTFTDARMSWVRQAPGKGLEWVADISSYGDNTYYADSVKGRFTISRDNSANTLYVQMNSLRAEDTAVYYCAKRMEREVMTIKLDYHAMDVWGQGTTVTVSS
VL: QSVLTQTPSVSGTPGQRVTISCSGVFNIRNYVSWYQQLPGTAPKLLIFKDDQRPSGVPDRFSGSRSGTSASLAISGLQSEDEADYYCAAWDIFLNVWVFGGGTKLTVL
With B7, the values for the FACS percent gated in assay [1] and in assay [5] were 75.7% and 1.99%, respectively. Further, the ELISA signal in assay [2] was determined as 1.79; in assay [3], 2.16; in assay [4] it was 0.046.

B8: 40769p2.2.G3 scFv-Fc (scFv, part only; not given: Linker, domain order, Fc, V domains shown, not shown: another chain or arm of the molecule; a dimerising Fc or GST; small tags and cut ends)
VH: EVQLLESGGGLVQPGGSLRLSCTASGITFSRFNMFWVRQAPGKGLEFVASIRDDGSWTYYADSVKGQFTISRDNSKNTLYLQMNSLRAEDTAVYYCAKDYSSKDFIYHYVMDVWGQGTTVTVSS
VL: QSVLTQPPSASGTPGQRVTISCSGRNSNIGNNVVNWYQQLPGTAPKLLIYRNQERPSGVPDRFSGSKSGTSASLAISGLQSEDEADYYCASWDDSLNAWVFGRGTKLTVL
For the molecule B8, the FACS percent gated turned out to be 92.1% in assay [1] and 1.46% in assay [5]. The ELISA signal in assay [2] is 1.7; in assay [3] it was 1.46; in assay [4], 0.044.

B9: 40769p2.1.E5 scFv-Fc (scFv, part only; not given: Linker, domain order, Fc, V domains shown, not shown: another chain or arm of the molecule; a dimerising Fc or GST; small tags and cut ends)
VH: EVQLLESGGGLVQPGGSLRLSCTASAHIFKYNWMSWVRQAPGKGLEWVSSINSDGTITYYTDSVKGRFTISRDNSKNTLYLQMNSLRAEDTAVYYCAKDNWNDYAIDVWGQGTTVTVSS
VL: QSVLTQPPSASGTPGQRVTISCSGSRSDIRNNYVSWYQQLPGTAPKLLIYSNGQRPSGVPDRFSGSKSGTSASLAISGLQSEDEADYYCAIWDDSLNAWVFGGGTKLTVL
Consider B9, for which the FACS percent gated in assay [1] turned out to be 76.3%; in assay [5], 3.13%. Besides, the values for the ELISA signal in assay [2], in assay [3] and in assay [4] were 1.96, 2.1 and 0.045, respectively.
